How the values were obtained:
Cathepsin G (CatG) [1] = target: T1, Cathepsin G (CatG) (Homo sapiens, UniProt P08311 21-244); assay: SP Sepharose chromatography (Kd in figure only); 5 mM Mg2+; SELEX and Kd: 30 mM Tris-HCl pH 7.5, 150 mM NaCl, 5 mM KCl, 5 mM MgCl2, on ice/4 C; SPR: immobilized CatG, HBS-EP pH 7.4 running buffer, oligos in the Tris buffer, 25 C; settings: protein: native, label: 5' 32P
T1 sequence: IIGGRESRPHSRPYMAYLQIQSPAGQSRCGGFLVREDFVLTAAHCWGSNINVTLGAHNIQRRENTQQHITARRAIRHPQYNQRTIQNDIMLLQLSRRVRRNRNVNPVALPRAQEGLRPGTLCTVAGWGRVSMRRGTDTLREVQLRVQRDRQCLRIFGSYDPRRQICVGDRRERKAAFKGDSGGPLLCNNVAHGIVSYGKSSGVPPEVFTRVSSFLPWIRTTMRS

Cathepsin G (CatG) [2] = target: T1, Cathepsin G (CatG); assay: SP Sepharose chromatography; no appreciable affinity; SELEX and Kd: 30 mM Tris-HCl pH 7.5, 150 mM NaCl, 5 mM KCl, 5 mM MgCl2, on ice/4 C; SPR: immobilized CatG, HBS-EP pH 7.4 running buffer, oligos in the Tris buffer, 25 C; settings: protein: native, label: 5' 32P

B1: cCG51 (ssDNA)
DNA: ACACGAATACCCTCTGTGCTCAGCGTAACACCCAAGCGTATACCCACATATCACACGTTG
Does B1 bind (Cathepsin G (CatG) [1])?
Result: binds

B2: CG51 (ssDNA)
DNA: CAACGTGTGATATGTGGGTATACGCTTGGGTGTTACGCTGAGCACAGAGGGTATTCGTGT
Does B2 bind (Cathepsin G (CatG) [1]; predicted fold about -2.52 kcal/mol)?
Result: binds

B3: pE35 (PE35), L-Tyr aptamer (ssDNA)
DNA: AATTCGCTAGCTGGAGCTTGGATTGATGTGGTGTGTGAGTGCGGTGCCCGGATCC
Does B3 bind (Cathepsin G (CatG) [2])?
Result: no binding

Does GGTTGGTGTGGTTGG (structured_DNA) [THR, thrombin aptamer] bind (Cathepsin G (CatG) [2]; G-quartet, intramolecular)?
Result: no binding

Source: PMC2658781, “Effective DNA Inhibitors of Cathepsin G by In Vitro Selection”
